From publication doi:10.1101/2024.03.13.584817 (bioRxiv, 2024)

Assays:
[1] = biological target: dROS1 ECR construct 1-9 (126-2113) (Drosophila, UniProt P13368 126-2113); experiment: SPR
[2] = biological target: T1, dROS1 ECR construct 1-4 (126-1298), His-tagged (Drosophila, UniProt P13368 126-1298); experiment: SPR
T1 sequence (looked up): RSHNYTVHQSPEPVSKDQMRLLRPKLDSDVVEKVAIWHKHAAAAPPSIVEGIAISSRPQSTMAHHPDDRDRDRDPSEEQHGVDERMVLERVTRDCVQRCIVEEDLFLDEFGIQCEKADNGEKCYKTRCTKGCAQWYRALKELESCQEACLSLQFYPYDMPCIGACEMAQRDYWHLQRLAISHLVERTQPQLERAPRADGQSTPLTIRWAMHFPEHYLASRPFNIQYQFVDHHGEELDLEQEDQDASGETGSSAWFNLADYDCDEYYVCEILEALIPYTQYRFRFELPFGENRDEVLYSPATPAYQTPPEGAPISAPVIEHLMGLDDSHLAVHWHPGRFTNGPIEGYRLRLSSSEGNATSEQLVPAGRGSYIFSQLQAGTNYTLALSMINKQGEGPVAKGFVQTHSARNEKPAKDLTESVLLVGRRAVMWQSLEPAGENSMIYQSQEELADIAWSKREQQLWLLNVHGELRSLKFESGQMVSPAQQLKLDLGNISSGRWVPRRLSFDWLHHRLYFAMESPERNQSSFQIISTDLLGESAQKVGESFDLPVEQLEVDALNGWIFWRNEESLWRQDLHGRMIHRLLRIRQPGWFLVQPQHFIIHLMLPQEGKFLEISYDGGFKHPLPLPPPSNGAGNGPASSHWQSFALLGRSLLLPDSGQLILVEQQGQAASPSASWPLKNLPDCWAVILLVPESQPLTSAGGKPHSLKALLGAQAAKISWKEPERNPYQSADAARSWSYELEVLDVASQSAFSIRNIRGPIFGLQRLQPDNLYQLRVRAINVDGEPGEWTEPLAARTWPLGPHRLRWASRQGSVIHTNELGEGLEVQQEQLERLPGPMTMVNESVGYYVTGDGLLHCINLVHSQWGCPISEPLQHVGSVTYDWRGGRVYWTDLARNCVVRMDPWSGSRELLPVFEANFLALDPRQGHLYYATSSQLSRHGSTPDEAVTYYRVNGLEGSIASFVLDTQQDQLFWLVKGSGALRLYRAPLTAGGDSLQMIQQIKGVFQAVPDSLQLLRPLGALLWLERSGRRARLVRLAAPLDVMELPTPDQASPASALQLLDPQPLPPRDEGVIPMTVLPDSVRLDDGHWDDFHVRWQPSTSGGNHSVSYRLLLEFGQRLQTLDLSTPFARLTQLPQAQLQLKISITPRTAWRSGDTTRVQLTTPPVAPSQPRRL

Kd [1]: 4.4 µM
Kd [2]: 3 to 5 µM
B1: BOSS ECR (102-510), His-tag cleaved (domain or fragment, Drosophila, UniProt P22815 102-510, looked up)
chain: GTTASLVPEICLNGLQLTVNSADEGTVIRKQEEFVKILEGDVVLSVLTKDPDSALFVINRVNQANLIMADFEIGIRAISIDNASLAENLLIQEVQFLQQCTTYSMGIFVDWELYKQLESVIKDLEYNIWPIPGTRAHLFPKVAHLLHQMPWGEKIASVEIATETLEMYNEFMEAARQEHMCLMHFKSDDNVYIMFGNKLASHFKENGTLFSVPTDRTDDEFLADLPNRAFVLMENEIDLSTAVELDATPTALDEILIGKSVLPSRVLSFAGSIIDLMNWLRGSLSKHCKRGEEHDLYVLESCFNFLNFIEDWRTSEYRQAHDTAEILSLLLMRKLGTAMNFQMYQKKVLTLDKITGESRTELREIASQNFVTNVTTYYHYNRDNHTSLELKTKFGQVFNCQYSAGDNRR
